Reference: patent US6855515B1, “Autoantigenic fragments, methods and assays” (Merck & Co., Inc., priority 1998, dated 2005)

Assays:
Format in all cases: biochemical
[1] = tested on: endogenous DNA-PKcs, NuMA and PARP in HeLa cell lysates; test: Cleavage of endogenous substrates in HeLa lysates after adding purified granzyme B, with caspase inhibitors; settings: inhibitor added 15 minutes prior to 12.5 nM granzyme B; 100 nM Ac-DEVD-CHO or 2 mM iodoacetamide
Protocol: Control HeLa lysates were prepared using methods commonly applied in the art, as described in Casciola-Rosen et al., 1994. […] The mixtures were incubated for 15 mn on ice to facilitate binding of the inhibitors to proteases prior to performing cleavage reactions at 37° C. for 60 min. After electrophoresing the samples on 10% SDS-polyacrylamide gels containing 0.087% bisacrylamide, the intact proteins and their cleaved fragments were visualized by immunoblotting.

granzyme B = target: T1, granzyme B (Homo sapiens, UniProt P10144); test: Susceptibility of autoantigens to cleavage by purified granzyme B (HeLa lysate immunoblot or immunoprecipitates); settings: in vitro
T1 construct: Some of these preparations were used for the further purification of granzyme B (Tschopp, 1994); endogenous in cells; host or cells: YT cells (human NK cell line), cytoplasmic granules
T1 sequence (P10144 21-247): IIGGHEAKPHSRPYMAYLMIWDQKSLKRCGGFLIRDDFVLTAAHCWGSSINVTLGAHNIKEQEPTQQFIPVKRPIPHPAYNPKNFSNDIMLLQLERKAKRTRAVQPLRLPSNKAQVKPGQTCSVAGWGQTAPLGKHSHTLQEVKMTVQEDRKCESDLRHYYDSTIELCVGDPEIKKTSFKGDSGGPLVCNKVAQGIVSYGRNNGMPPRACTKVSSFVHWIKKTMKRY
Protocol: To determine whether susceptibility to direct cleavage by granzyme B was an isolated feature of PARP, NuMA and DNA-PKcs shown above, or whether it was a more general feature of autoantigens, a variety of well-defined autoantigens selected from across the spectrum of systemic autoimmune diseases were tested for susceptibility to cleavage by purified granzyume B. The efficiency of cleavage of the substrates by purified granzyme B was also noted (Table 3). Initially, a series of autoantibodies of well-defined specificity were used to immunoblot lysates of HeLa cells that had been incubated in vitro with or without granzyme B. Lysates were pre-treated with iodoacetamide (IAA) to prevent interference by endogenous caspase activity.
To perform these studies, HeLa cells were radiolabeled with [^35S] methionine/cysteine, and proteins were immunoprecipitated using human autoantibodies. Protein A-agarose beads containing washed precipitated proteins were resuspended in buffer supporting the activity of granzyme B, and incubated in the absence or presence of added purified granzyme B. Reaction products were visualized using SDS-PAGE and fluorography. To confirm the validity of this approach, several different autoantigens known to be cleaved by granzyme B, as well as several autoantigens and non-autoantigens that are not cleaved by granzyme B, were tested. Using autoantibodies that both immunoblot and immunprecipitate, the cleavage profiles obtained using granzyme B to cleave molecules in lysates (followed by detection with immunoblotting), and after immunoprecipitation (from [^35S]methionine-labeled HeLa lysate) were compared. Identical results were obtained using these 2 methods for cleaved autoantigens (topoisomerase-1, Mi-2, RNA polymerase II large subunit, Ku-70, PARP, and NOR-90), uncleaved autoantigens (Ku-80, Ro 60k), and control substrates (β-tubulin, vinculin). […] Of note, all these additional autoantigens (with the exception of RNA polymerase I) are targeted in autoimmune myositis. However, two other tRNA synthetases (threonyl tRNA synthetase and glycyl tRNA synthetase) that are also autoantigens in autoimmune myositis, were not cleaved using this approach.

caspase-8 = caspase-8 (Homo sapiens, UniProt Q14790); test: Cleavage of substrates by purified caspase-8; settings: 50 nM purified caspase-8; HeLa lysates treated with iodoacetamide, or radiolabeled IvTT substrate
caspase-8, sequence (Q14790 217-374 limits assumed, species assumed): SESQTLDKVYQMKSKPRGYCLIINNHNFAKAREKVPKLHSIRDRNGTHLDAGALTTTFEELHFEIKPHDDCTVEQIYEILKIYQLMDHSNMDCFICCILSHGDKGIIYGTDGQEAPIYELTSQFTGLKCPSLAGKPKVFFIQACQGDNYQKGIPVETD
caspase-8, sequence (Q14790 385-479 limits assumed, species assumed): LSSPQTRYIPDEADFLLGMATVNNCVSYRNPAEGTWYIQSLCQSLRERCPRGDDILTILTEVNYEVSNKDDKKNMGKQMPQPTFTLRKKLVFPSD
Protocol: To confirm that these substrates were not cleaved by group III caspases, the substrates were incubated with 50 nM purified caspase-8. Cleavage assays were performed in HeLa cell lysates in which endogenous caspases had first been irreversibly inactivated by 1 mM iodoacetamide (4° C. for 15 min), prior to addition of 5 mM DTT to facilitate exogenous caspase-8 activity. No cleavage of topoisomerase-1, Mi-2, U1-70 kDa, PARP, Ku-70, RNA polymerase II large subunit, SRP-72, NuMA or Ki-67 occurred. Caspase-8 was indeed active in these lysates, as evidenced by robust caspase-3 cleavage products of PARP and U1-70 kDa seen when the IAA ‘poisoning’ step was omitted. Radiolabeled PMS1 and PMS2 (generated by IvTT) were also not cleaved by purified caspase-8.

Row | Compound | susceptibility to cleavage by granzyme B (granzyme B) | cleavage by caspase-8 (caspase-8) | other results
1 | NC(=O)CI [iodoacetamide] | – | – | cleavage of PARP [1]: almost entirely abolished
2 | KI-67: autoantigen | cleaved | No cleavage | –
3 | Ku-70: autoantigen | efficiently cleaved | No cleavage | –
4 | Ku-80: uncleaved autoantigen | uncleaved | – | –
5 | PMS2: autoantigen | cleaved | not cleaved | –
6 | RNA polymerase I: autoantigen | cleaved | – | –
7 | Ro52 kDa: ribonucleoprotein autoantigen | not susceptible to cleavage | – | –
8 | Ro 60k: ribonucleoprotein autoantigen | uncleaved | – | susceptibility to cleavage by granzyme B (granzyme B; listed as Ro 60 kDa): not susceptible to cleavage
9 | Topoisomerase I: autoantigen | – | No cleavage | susceptibility to cleavage by granzyme B (granzyme B; listed as topoisomerase-1): efficiently cleaved
10 | U1-70 kDa: autoantigen cleaved by caspases during apoptosis | efficiently cleaved | No cleavage | –
11 | nuclear mitotic apparatus protein [NuMA] | – | No cleavage | –
12 | poly(ADP-ribose)polymerase [PARP] | efficiently cleaved | No cleavage | –
13 | vinculin: control substrate, non-autoantigen [reference compound] | not cleaved | – | –
